Assays:
[1] = western blot of acetone-precipitated HEK293 medium; conditions: glycan lost; control: wild-type IFNλ4-FLAG
[2] = IFNλ activity of supernatant, Mx1-luciferase reporter, HEK293+IFNλR1; conditions: glycan lost; control: wild-type IFNλ4-FLAG

B1: IFNλ4 (interferon lambda 4): N61D (protein)
parent chain: MRPSVWAAVAAGLWVLCTVIAAAPRRCLLSHYRSLEPRTLAAAKALRDRYEEEALSWGQRNCSFRPRRDPPRPSSCARLRHVARGIADAQAVLSGLHRSELLPGAGPILELLAAAGRDVAACLELARPGSSRKVPGAQKRRHKPRRADSPRCRKASVVFNLLRLLTWELRLAAHSGPCL
With B1 as the protein, how does the expression_or_secretion [1] read?
The expression_or_secretion was “decreases”.

And the expression_or_secretion [2]?
The expression_or_secretion was “decreases”.

From publication PMC3844954
